For one molecule, PECAM-1 protein expression results are on record in US7893027B2, “Treatment of ocular wounds and ulcers” (The Board of Regents of the University of Oklahoma, priority 2002, dated 2011).

The subject of the assay is PECAM-1 (CD31). Nature of the assay: Flow cytometry of PECAM-1 expression on HCEC. The note with it: CAP37 1 μg/ml. It counts as cell-based, human. As for the experimental part: Flow cytometry was used to assess the upregulation of PECAM-1 (CD31), and the integrin molecules β1 (CD29), β2 (CD18), β3 (CD61), β4 (CD104), α1 (CD49a), α2 (CD49b), α3 (CD49c), α4 (CD 49d), and αv (CD51). Human corneal epithelial cells were cultured as above and treated with CAP37 (0-2000 ng/ml) for 0-72 hr. A corresponding culture was left untreated at each time point. Following treatment with CAP37, cells were detached with 0.25% trypsin in 1 mM EDTA (pH 7.4, FISHER SCIENTIFIC, Pittsburgh, Pa.), washed twice in PBS and fixed with 0.125% paraformaldehyde (J.T. BAKER, Phillipsburg, N.J.) overnight at 4° C. The cells were washed in PBS and then incubated in 0.5% normal goat serum and 0.5% bovine serum albumin (BSA) in PBS for 30 min to block non-specific binding sites. Cells were incubated in the primary antibody (at concentrations described below) at 4° C. for 1 hr followed by the secondary antibody (FITC-goat anti-mouse IgG, PHARMINGEN, San Diego, Calif.) at 0.5 μg/10^6 cells and incubated at 4° C. for 30 min. The isotype control for these studies was FITC-labeled mouse isotype IgG1 (PHARMINGEN). The cells were analyzed by flow cytometry (FACS Calibur, BECTON DICKINSON, San Jose, Calif.). At least ten thousand cells were analyzed for each sample. […]

B1: CAP37: Cationic Antimicrobial Protein of Mr 37 kDa; recombinant protein from human 293 cells, identical to native PMN-derived CAP37 (SEQ ID NO:1) (protein, listed as Homo sapiens)
chain: IVGGRKARPRQFPFLASIQNQGRHFCGGALIHARFVMTAASCFQSQNPGVSTVVLGAYDLRRRERQSRQTFSISSMSENGYDPQQNLNDLMLLQLDREANLTSSVTILPLPLQNATVEAGTRCQVAGWGSQRSGGRLSRFPRFVNVTVTPEDQCRPNNVCTGVLTRRGGICNGDGGTPLVCEGLAHGVASFSLGPCGRGPDFFTRVALFRDWIDGVLNNPGP
Consider B1, for which the PECAM-1 protein expression entry reads like this: (24 hr) “waned”; (at 6 hr, maintained through 12 hr) “Significant protein expression”.
